# Laboratory results taken from paper PMC3912023.
# What was measured:
# [1] = biological target: CorA, endogenously expressed, purified from Methylomicrobium album BG8 (Methylomicrobium album BG8); test: SEC; calibrated Superdex 75 16/60 gel filtration, 40 mM Tris-HCl pH 8.0, 0.5 M NaCl; data not shown
# [2] = biological target: Recombinant CorA (without the predicted signal peptide) (Methylomicrobium album BG8); test: SEC; calibrated Superdex 75 16/60 gel filtration, 20 mM Tris-HCl pH 7.5, 1 mM CaCl2; data not shown
stoichiometry N [1],stoichiometry N [2],Substance
2,,"CorA, endogenously expressed, purified from Methylomicrobium album BG8 (natural protein)"
,2,Recombinant CorA (without the predicted signal peptide) (natural protein)
